# B1: sLZIP: human small leucine-zipper protein, isoform of LZIP, 354 amino acids, no transmembrane domain, GenBank FJ263669, SEQ ID NO: 1 (protein, listed as Homo sapiens)
# chain: MELELDAGDQDLLAFLLEESGDLGTAPDEAVRAPLDWALPLSEVPSDWEVDDLLCSLLSPPASLNILSSSNPCLVHHDHTYSLPRETVSMDLESESCRKEGTQMTPQHMEELAEQEIARLVLTDEEKSLLEKEGLILPETLPLTKTEEQILKRVRRKIRNKRSAQESRRKKKVYVGGLESRVLKYTAQNMELQNKVQLLEEQNLSLLDQLRKLQAMVIEISNKTSSSSMYSSDTRGSLPAEHGVLSRQLRALPSEDPYQLELPALQSEVPKDSTHQWLDGSDCVLQAPGNTSCLLHYMPQAPSAEPPLEWPFPDLFSEPLCRGPILPLQANLTRKGGWLPTGSPSVILQDRYSG
# Assays:
# [1] = molecular target: T1, NCoR1 (Homo sapiens, UniProt O75376); experiment: Immunoprecipitation of sLZIP with anti-NCoR1 antibodies in 293T cells; type: binding; settings: 10 nM RZD for 24 hours
# T1 construct: endogenous in cells; host or cells: 293T
# T1 sequence (O75376 whole entry): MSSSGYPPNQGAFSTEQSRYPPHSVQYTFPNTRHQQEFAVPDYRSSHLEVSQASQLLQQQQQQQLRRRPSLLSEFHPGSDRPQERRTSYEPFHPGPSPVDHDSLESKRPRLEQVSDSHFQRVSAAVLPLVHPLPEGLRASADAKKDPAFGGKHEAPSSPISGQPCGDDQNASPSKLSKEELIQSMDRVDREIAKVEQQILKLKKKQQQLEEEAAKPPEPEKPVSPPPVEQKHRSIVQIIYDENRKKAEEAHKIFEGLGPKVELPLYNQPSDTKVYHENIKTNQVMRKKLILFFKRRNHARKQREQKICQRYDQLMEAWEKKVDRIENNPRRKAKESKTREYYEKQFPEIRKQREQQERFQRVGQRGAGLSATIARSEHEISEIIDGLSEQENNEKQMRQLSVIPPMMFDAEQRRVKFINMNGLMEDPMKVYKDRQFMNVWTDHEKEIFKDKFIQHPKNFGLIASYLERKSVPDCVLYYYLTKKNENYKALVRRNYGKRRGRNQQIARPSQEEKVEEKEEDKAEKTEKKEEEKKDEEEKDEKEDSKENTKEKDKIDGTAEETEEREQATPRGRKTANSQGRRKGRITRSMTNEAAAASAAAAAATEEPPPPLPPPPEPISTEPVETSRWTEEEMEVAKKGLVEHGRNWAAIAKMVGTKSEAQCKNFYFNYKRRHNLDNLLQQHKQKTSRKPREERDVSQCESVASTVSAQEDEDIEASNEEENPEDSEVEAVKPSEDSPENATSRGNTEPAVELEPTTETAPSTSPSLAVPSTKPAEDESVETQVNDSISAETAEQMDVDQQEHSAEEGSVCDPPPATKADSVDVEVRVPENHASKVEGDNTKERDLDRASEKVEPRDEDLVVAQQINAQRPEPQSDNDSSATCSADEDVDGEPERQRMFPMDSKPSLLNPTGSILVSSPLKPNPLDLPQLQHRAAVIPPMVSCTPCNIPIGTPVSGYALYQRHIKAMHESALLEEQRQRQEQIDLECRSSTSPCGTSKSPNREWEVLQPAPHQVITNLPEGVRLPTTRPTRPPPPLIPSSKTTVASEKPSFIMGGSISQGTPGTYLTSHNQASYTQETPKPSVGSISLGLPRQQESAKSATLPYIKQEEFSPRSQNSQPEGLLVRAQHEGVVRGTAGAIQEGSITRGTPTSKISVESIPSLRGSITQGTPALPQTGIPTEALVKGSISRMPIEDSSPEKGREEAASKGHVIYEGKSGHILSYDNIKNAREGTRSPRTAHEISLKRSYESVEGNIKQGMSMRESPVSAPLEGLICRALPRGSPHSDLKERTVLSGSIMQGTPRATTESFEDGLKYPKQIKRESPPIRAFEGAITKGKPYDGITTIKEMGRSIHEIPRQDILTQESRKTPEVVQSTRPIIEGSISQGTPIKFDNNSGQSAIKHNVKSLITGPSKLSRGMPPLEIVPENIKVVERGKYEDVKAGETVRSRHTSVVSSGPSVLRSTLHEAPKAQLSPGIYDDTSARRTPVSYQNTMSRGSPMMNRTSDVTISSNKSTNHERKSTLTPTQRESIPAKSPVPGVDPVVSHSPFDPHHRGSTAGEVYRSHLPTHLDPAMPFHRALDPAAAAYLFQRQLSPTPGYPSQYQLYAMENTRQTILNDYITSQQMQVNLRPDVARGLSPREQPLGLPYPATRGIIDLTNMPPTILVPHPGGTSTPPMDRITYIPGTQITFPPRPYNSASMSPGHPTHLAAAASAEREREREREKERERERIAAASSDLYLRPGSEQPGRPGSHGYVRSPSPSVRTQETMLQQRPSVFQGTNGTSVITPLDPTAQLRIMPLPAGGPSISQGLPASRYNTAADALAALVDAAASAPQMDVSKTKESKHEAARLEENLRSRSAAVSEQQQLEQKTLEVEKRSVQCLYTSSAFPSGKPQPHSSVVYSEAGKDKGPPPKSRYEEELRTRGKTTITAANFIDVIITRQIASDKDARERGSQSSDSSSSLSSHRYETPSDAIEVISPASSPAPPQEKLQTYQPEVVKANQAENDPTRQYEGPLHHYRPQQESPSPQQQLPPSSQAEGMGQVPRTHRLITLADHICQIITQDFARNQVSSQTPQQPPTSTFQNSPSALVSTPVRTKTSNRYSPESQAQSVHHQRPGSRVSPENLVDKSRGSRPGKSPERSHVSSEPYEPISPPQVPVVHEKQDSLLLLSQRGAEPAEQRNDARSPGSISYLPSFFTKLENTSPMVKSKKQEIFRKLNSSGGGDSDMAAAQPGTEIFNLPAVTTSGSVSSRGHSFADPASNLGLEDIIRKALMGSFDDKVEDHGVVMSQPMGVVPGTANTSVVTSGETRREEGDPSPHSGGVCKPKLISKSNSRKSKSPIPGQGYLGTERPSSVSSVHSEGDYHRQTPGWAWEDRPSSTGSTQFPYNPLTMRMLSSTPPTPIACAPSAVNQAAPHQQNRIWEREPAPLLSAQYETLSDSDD
# Method: 293T cells were obtained and washed with cold PBS. The cells were re-suspended in an IP lysis buffer [25 mM of Tris-HCl (pH 7.4), 150 mM of NaCl, 1 mM of EDTA, 1% NP-40 and 5% glycerol, and a protease inhibitor]. A suspension was centrifuged at 16,000×g for 20 minutes at 4° C. Supernatants were collected and incubated with 0.5 μg of appropriate antibodies and 25 μl of protein A/G-agarose or a GST Sepharose 4B bead for 24 hours at 4° C. A protein complex was centrifuged at 1,000×g with a cold IP lysis buffer for 1 minute and washed five times. The final pellet was re-suspended in 50 μl of an SDS-sample buffer containing 5% β-mercaptoethanol and heated for 10 minutes at 100° C. A protein sample was isolated in SDS-PAGE (8 to 10%) and transferred to nitrocellulose membranes. Co-precipitated proteins were detected according to western blotting using specific antibodies.
# For this purpose, 293T cells were transfected with GST-PPARγ2 and Flag-sLZIP and were treated or not treated with 10 nM of RZD for 24 hours. […] A protein complex was analyzed in SDS-PAGE, and immunoblotted with anti-GST and anti-Flag antibodies. […] The cell lysates were GST pull-down analyzed (FIG. 5C). […] The cell lysates were GST pull-down analyzed (FIG. 5D). […] A protein complex was analyzed in SDS-PAGE, and then immunoblotted with anti-NCoR1 and anti-Flag antibodies (FIG. 5E). […]
# [2] = molecular target: T2, Runx2 (Homo sapiens, UniProt Q13950); experiment: Runx2 transcriptional activity, luciferase reporter with 6 copies of Runx2 response elements in 293T cells; type: cell-based
# T2 construct: expressed in transfected cells; host or cells: 293T
# T2 sequence (Q13950 whole entry, species assumed): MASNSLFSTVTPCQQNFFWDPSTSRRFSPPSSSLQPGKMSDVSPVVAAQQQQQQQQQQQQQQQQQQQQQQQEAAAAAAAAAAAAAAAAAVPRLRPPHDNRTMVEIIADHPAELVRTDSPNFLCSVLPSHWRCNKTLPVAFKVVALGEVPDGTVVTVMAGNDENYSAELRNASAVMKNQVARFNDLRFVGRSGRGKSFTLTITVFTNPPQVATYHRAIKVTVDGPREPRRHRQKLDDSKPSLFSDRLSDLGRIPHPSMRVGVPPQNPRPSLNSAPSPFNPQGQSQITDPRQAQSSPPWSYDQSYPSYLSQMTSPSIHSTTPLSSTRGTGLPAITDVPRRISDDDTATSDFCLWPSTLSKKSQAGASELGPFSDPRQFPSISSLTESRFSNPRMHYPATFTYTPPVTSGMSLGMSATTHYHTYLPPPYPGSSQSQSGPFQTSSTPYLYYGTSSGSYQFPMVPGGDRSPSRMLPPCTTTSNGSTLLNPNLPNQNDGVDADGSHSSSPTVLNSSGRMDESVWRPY
# Method: Appropriately transfected cells were washed with cold PBS twice, and a reporter lysis buffer (Promega) was used and lysed in a culture dish. Luciferase analysis was performed using a luciferase analysis system (Promega Corporation, Madison, Wis.). A luciferase activity was recorded in Luminometer 20/20^n (Turner BioSystems, Sunnyvale, Calif.) according to instructions of the manufacturer. The luciferase activity was normalized to a β-galactosidase activity. For β-galactosidase analysis, CMV-β-galactosidase was transfected with luciferase reporter genes. All pieces of data were represented as mean±standard deviation of the results from at least three independent experiments.
# Therefore, in order to characterize a potential role of sLZIP in the transcriptional activity of Runx2 by inhibiting the transcriptional activity of PPARγ2, the transcriptional activity of Runx2 was examined. For this purpose, 293T cells were temporarily transfected with Runx2 (0.5 μg), β-galactosidase (0.1 μg), 6 copies of Runx2 response elements (0.2 μg) and sLZIP at different contents (0.1 μg to 0.5 μg) (FIG. 7A). PPARγ2 (0.5 μg), β-galactosidase, Runx2, 6 copies of Runx2 response elements and sLZIP (0.5 μg) were expressed in the 293T cells (FIG. 7B). 293T cells were temporarily transfected with HDAC3 (0.5 μg), Runx2, β-galactosidase, 6 copies of Runx2 response elements and sLZIP at different contents (0.25 and 0.5 μg) (FIG. 7C). A promoter activity was measured by luciferase analysis. A luciferase activity was normalized to a β-galactosidase activity and represented as a relative activity (fold change). All experiments were repeated three times and data was represented as mean±standard deviation. A medium of primary MSCs and C3H10T1/2 cells of a human was exchanged with a differentiation medium in which 50 μg/mL of ascorbic acid, 10 mM of β-glycerol phosphate and 10% FBS were contained for 8 days (FIG. 7D). A medium of MEF cells was exchanged with a differentiation medium in which 50 μg/mL of ascorbic acid, 10 mM of β-glycerol phosphate and 10% FBS were contained for 8 days. […]
molecule,measurement,setting,value
B1,interaction with NCoR1,[1],slightly dissociated from sLZIP
same,transcriptional activity of Runx2,"[2]; HDAC3 0.5 μg co-expressed, sLZIP 0.25 and 0.5 μg",restored the transcriptional activity of Runx2
same,transcriptional activity of Runx2,"[2]; PPARγ2 0.5 μg co-expressed, sLZIP 0.5 μg",restored the activity of Runx2
same,increase of the transcriptional activity of Runx2 (factor),[2]; sLZIP 0.1 μg to 0.5 μg,about 4
